This experiment has as its target Ccc1(1-109), truncated recombinant fragment of Ccc1 that contains its chromodomain (Cryptococcus neoformans). As to the kind of experiment: fluorescence polarisation.

As to unlabeled Cryptococcus H3K27me2 peptide, the Kd was 119 µM.
As for unlabeled Cryptococcus H3K27me3 peptide, the dissociation constant Kd was found to be 28 µM.

The values are drawn from paper PMC4303595.
